Test results: US20230139053A1

Legend:
[1] = target: anti-A2M antibody (MAB) labeled with a donor fluorophore; test: competitive TR-FRET, competitor acceptor-labeled isolated A2M, whole blood; A2M 500 ug/mL, multiplex cals, 5 min (FIG. 2I)
[2] = target: anti-A2M antibody (MAB) labeled with a donor fluorophore; test: competitive TR-FRET, competitor acceptor-labeled isolated A2M; unlabeled A2M 200 ug/mL, mean of 4 replicates (FIG. 2G)
[3] = target: anti-A2M antibody (MAB) labeled with a donor fluorophore; test: competitive TR-FRET, competitor acceptor-labeled isolated A2M, whole blood; A2M 2000 ug/mL, multiplex cals, 30 min (FIG. 2I)
[4] = target: anti-A2M antibody (MAB) labeled with a donor fluorophore; test: competitive TR-FRET, competitor acceptor-labeled isolated A2M, whole blood; A2M 2000 ug/mL, multiplex cals, 5 min (FIG. 2I)
[5] = target: anti-A2M antibody (MAB) labeled with a donor fluorophore; test: competitive TR-FRET, competitor acceptor-labeled isolated A2M, whole blood; A2M 4000 ug/mL, multiplex cals, 30 min (FIG. 2I)
[6] = target: anti-A2M antibody (MAB) labeled with a donor fluorophore; test: competitive TR-FRET, competitor acceptor-labeled isolated A2M, whole blood; A2M 500 ug/mL, singleplex cals, 30 min (FIG. 2I)
[7] = target: anti-A2M antibody (MAB) labeled with a donor fluorophore; test: competitive TR-FRET, competitor acceptor-labeled isolated A2M; unlabeled A2M 1000 ug/mL, mean of 4 replicates (FIG. 2G)
[8] = target: anti-A2M antibody (MAB) labeled with a donor fluorophore; test: competitive TR-FRET, competitor acceptor-labeled isolated A2M, whole blood; A2M 2000 ug/mL, singleplex cals, 30 min (FIG. 2I)
[9] = target: anti-A2M antibody (MAB) labeled with a donor fluorophore; test: competitive TR-FRET, competitor acceptor-labeled isolated A2M, whole blood; A2M 200 ug/mL, multiplex cals, 5 min (FIG. 2I)
[10] = target: anti-A2M antibody (MAB) labeled with a donor fluorophore; test: competitive TR-FRET, competitor acceptor-labeled isolated A2M, whole blood; A2M 0 ug/mL, singleplex cals, 30 min (FIG. 2I)
[11] = target: anti-A2M antibody (MAB) labeled with a donor fluorophore; test: competitive TR-FRET, competitor acceptor-labeled isolated A2M; unlabeled A2M 2000 ug/mL, mean of 4 replicates (FIG. 2G)
[12] = target: anti-A2M antibody (MAB) labeled with a donor fluorophore; test: competitive TR-FRET, competitor acceptor-labeled isolated A2M, whole blood; A2M 0 ug/mL, singleplex cals, 5 min (FIG. 2I)
[13] = target: anti-A2M antibody (MAB) labeled with a donor fluorophore; test: competitive TR-FRET, competitor acceptor-labeled isolated A2M, whole blood; A2M 2000 ug/mL, singleplex cals, 5 min (FIG. 2I)
[14] = target: anti-A2M antibody (MAB) labeled with a donor fluorophore; test: competitive TR-FRET, competitor acceptor-labeled isolated A2M, whole blood; A2M 0 ug/mL, multiplex cals, 30 min (FIG. 2I)
[15] = target: anti-A2M antibody (MAB) labeled with a donor fluorophore; test: competitive TR-FRET, competitor acceptor-labeled isolated A2M; unlabeled A2M 500 ug/mL, mean of 4 replicates (FIG. 2G)
[16] = target: anti-A2M antibody (MAB) labeled with a donor fluorophore; test: competitive TR-FRET, competitor acceptor-labeled isolated A2M, whole blood; A2M 500 ug/mL, multiplex cals, 30 min (FIG. 2I)
[17] = target: anti-A2M antibody (MAB) labeled with a donor fluorophore; test: competitive TR-FRET, competitor acceptor-labeled isolated A2M, whole blood; A2M 500 ug/mL, singleplex cals, 5 min (FIG. 2I)
[18] = target: anti-A2M antibody (MAB) labeled with a donor fluorophore; test: competitive TR-FRET, competitor acceptor-labeled isolated A2M, whole blood; A2M 4000 ug/mL, multiplex cals, 5 min (FIG. 2I)
[19] = target: anti-A2M antibody (MAB) labeled with a donor fluorophore; test: competitive TR-FRET, competitor acceptor-labeled isolated A2M, whole blood; A2M 200 ug/mL, multiplex cals, 30 min (FIG. 2I)
[20] = target: anti-A2M antibody (MAB) labeled with a donor fluorophore; test: competitive TR-FRET, competitor acceptor-labeled isolated A2M, whole blood; A2M 4000 ug/mL, singleplex cals, 5 min (FIG. 2I)
[21] = target: anti-A2M antibody (MAB) labeled with a donor fluorophore; test: competitive TR-FRET, competitor acceptor-labeled isolated A2M, whole blood; A2M 1000 ug/mL, multiplex cals, 30 min (FIG. 2I)
[22] = target: anti-A2M antibody (MAB) labeled with a donor fluorophore; test: competitive TR-FRET, competitor acceptor-labeled isolated A2M; unlabeled A2M 4000 ug/mL, mean of 4 replicates (FIG. 2G)
[23] = target: anti-A2M antibody (MAB) labeled with a donor fluorophore; test: competitive TR-FRET, competitor acceptor-labeled isolated A2M, whole blood; A2M 200 ug/mL, singleplex cals, 30 min (FIG. 2I)
[24] = target: anti-A2M antibody (MAB) labeled with a donor fluorophore; test: competitive TR-FRET, competitor acceptor-labeled isolated A2M, whole blood; A2M 1000 ug/mL, singleplex cals, 5 min (FIG. 2I)
[25] = target: anti-A2M antibody (MAB) labeled with a donor fluorophore; test: competitive TR-FRET, competitor acceptor-labeled isolated A2M, whole blood; A2M 4000 ug/mL, singleplex cals, 30 min (FIG. 2I)
[26] = target: anti-A2M antibody (MAB) labeled with a donor fluorophore; test: competitive TR-FRET, competitor acceptor-labeled isolated A2M, whole blood; A2M 0 ug/mL, multiplex cals, 5 min (FIG. 2I)
[27] = target: anti-A2M antibody (MAB) labeled with a donor fluorophore; test: competitive TR-FRET, competitor acceptor-labeled isolated A2M, whole blood; A2M 1000 ug/mL, multiplex cals, 5 min (FIG. 2I)
[28] = target: anti-A2M antibody (MAB) labeled with a donor fluorophore; test: competitive TR-FRET, competitor acceptor-labeled isolated A2M, whole blood; A2M 1000 ug/mL, singleplex cals, 30 min (FIG. 2I)
[29] = target: anti-A2M antibody (MAB) labeled with a donor fluorophore; test: competitive TR-FRET, competitor acceptor-labeled isolated A2M; unlabeled A2M 0 ug/mL, mean of 4 replicates (FIG. 2G)
[30] = target: anti-A2M antibody (MAB) labeled with a donor fluorophore; test: competitive TR-FRET, competitor acceptor-labeled isolated A2M, whole blood; A2M 200 ug/mL, singleplex cals, 5 min (FIG. 2I)

F/B [1]: 0.71 | F/B Mean [2]: 0.905 | F/B [3]: 0.45 | F/B [4]: 0.45 | F/B [5]: 0.33 | F/B [6]: 0.71 | F/B Mean [7]: 0.666 | F/B [8]: 0.43 | F/B [9]: 0.83 | F/B [10]: 1 | F/B Mean [11]: 0.532 | F/B [12]: 1 | F/B [13]: 0.43 | F/B [14]: 1 | F/B Mean [15]: 0.795 | F/B [16]: 0.74 | F/B [17]: 0.72 | F/B [18]: 0.34 | F/B [19]: 0.87 | F/B [20]: 0.33 | F/B [21]: 0.56 | F/B Mean [22]: 0.393 | F/B [23]: 0.88 | F/B [24]: 0.58 | F/B [25]: 0.33 | F/B [26]: 1 | F/B [27]: 0.58 | F/B [28]: 0.59 | F/B Mean [29]: 1 | F/B [30]: 0.88
B1: A2M (alpha-2-macroglobulin), unlabeled calibrator / analyte (protein)
chain: SVSGKPQYMVLVPSLLHTETTEKGCVLLSYLNETVTVSASLESVRGNRSLFTDLEAENDVLHCVAFAVPKSSSNEEVMFLTVQVKGPTQEFKKRTTVMVKNEDSLVFVQTDKSIYKPGQTVKFRVVSMDENFHPLNELIPLVYIQDPKGNRIAQWQSFQLEGGLKQFSFPLSSEPFQGSYKVVVQKKSGGRTEHPFTVEEFVLPKFEVQVTVPKIITILEEEMNVSVCGLYTYGKPVPGHVTVSICRKYSDASDCHGEDSQAFCEKFSGQLNSHGCFYQQVKTKVFQLKRKEYEMKLHTEAQIQEEGTVVELTGRQSSEITRTITKLSFVKVDSHFRQGIPFFGQVRLVDGKGVPIPNKVIFIRGNEANYYSNATTDEHGLVQFSINTTNVMGTSLTVRVNYKDRSPCYGYQWVSEEHEEAHHTAYLVFSPSKSFVHLEPMSHELPCGHTQTVQAHYILNGGTLLGLKKLSFYYLIMAKGGIVRTGTHGLLVKQEDMKGHFSISIPVKSDIAPVARLLIYAVLPTGDVIGDSAKYDVENCLANKVDLSFSPSQSLPASHAHLRVTAAPQSVCALRAVDQSVLLMKPDAELSASSVYNLLPEKDLTGFPGPLNDQDNEDCINRHNVYINGITYTPVSSTNEKDMYSFLEDMGLKAFTNSKIRKPKMCPQLQQYEMHGPEGLRVGFYESDVMGRGHARLVHVEEPHTETVRKYFPETWIWDLVVVNSAGVAEVGVTVPDTITEWKAGAFCLSEDAGLGISSTASLRAFQPFFVELTMPYSVIRGEAFTLKATVLNYLPKCIRVSVQLEASPAFLAVPVEKEQAPHCICANGRQTVSWAVTPKSLGNVNFTVSAEALESQELCGTEVPSVPEHGRKDTVIKPLLVEPEGLEKETTFNSLLCPSGGEVSEELSLKLPPNVVEESARASVSVLGDILGSAMQNTQNLLQMPYGCGEQNMVLFAPNIYVLDYLNETQQLTPEIKSKAIGYLNTGYQRQLNYKHYDGSYSTFGERYGRNQGNTWLTAFVLKTFAQARAYIFIDEAHITQALIWLSQRQKDNGCFRSSGSLLNNAIKGGVEDEVTLSAYITIALLEIPLTVTHPVVRNALFCLESAWKTAQEGDHGSHVYTKALLAYAFALAGNQDKRKEVLKSLNEEAVKKDNSVHWERPQKPKAPVGHFYEPQAPSAEVEMTSYVLLAYLTAQPAPTSEDLTSATNIVKWITKQQNAQGGFSSTQDTVVALHALSKYGAATFTRTGKAAQVTIQSSGTFSSKFQVDNNNRLLLQQVSLPELPGEYSMKVTGEGCVYLQTSLKYNILPEKEEFPFALGVQTLPQTCDEPKAHTSFQISLSVSYTGSRSASNMAIVDVKMVSGFIPLKPTVKMLERSNHVSRTEVSSNHVLIYLDKVSNQTLSLFFTVLQDVPVRDLKPAIVKVYDYYETDEFAIAEYNAPCSKDLGNA
